Laboratory results published in PMC7954794, “Protein context shapes the specificity of SH3 domain-mediated interactions in vivo” (Nature Communications, 2021).

Experiments:
Assay type in all cases: cell-based, Saccharomyces cerevisiae
[1] = test system: 575 putative partners (preys) of 22 WT SH3-containing proteins; assay: DHFR-PCA on solid medium, WT and SH3-deleted baits (Fig. 1B); set-up: key to Score: 0: SH3-independent; 1: SH3-dependent PPIs; 2: SH3-inhibited PPIs; details: for medrep (log2 median colony size normalized to plate background, PCA score): label = prey; for Ratio (SH3-deleted/WT medrep): only significant differences shown, PPIs completely lost have a ratio of 0.1, gained PPIs 2.5
Text: To assess the requirement of SH3 domains for PPIs in vivo, we first measured binary interactions between 22 WT SH3-containing proteins (Supplementary Fig. 1A) as baits and 575 putative partners from their interconnected signaling networks using the dihydrofolate reductase protein–fragment complementation assay (DHFR-PCA) in the budding yeast Saccharomyces cerevisiae. About 33% (202/607) of the PPIs detected were described before, mostly by direct methods (Supplementary Fig. 1B, C)[11]. We repeated the experiments with baits in which the SH3s were individually replaced with a flexible linker by genome editing (SH3 domain deletion/stuffing, Fig. 1A). The stuffer DNA sequence ([…]) codes for a small flexible poly-Gly with Ser peptide ([…]) that is inspired by previous experiments[12],[13]. About a third of the SH3-containing protein interactome is qualitatively or quantitatively SH3-dependent (171 PPIs out of 607, Fig. 1B and Supplementary Fig. 1B, C). We validated the vast majority of the quantitative changes in low-throughput experiments and excluded that this is simply due to changes in protein abundance in most cases (Supplementary Fig. 1D–G). SH3-binding motifs[14] are more frequent in the SH3-dependent PPI partners when compared to sequences from random proteins, SH3-independent PPI partners or PPI partners that are stronger or gained following SH3 deletions (p values = 1.5 × 10^−17, 0.0038 and 2.1 × 10^−08, respectively; Mann–Whitney test, one-tailed, Fig. 1C). The changes we measure are therefore enriched for PPIs that depend on the direct interactions of the domains with the PPI partners.
The complete list of strains, primers, and gRNAs used in this study can be found in Supplementary Tables 1–3. All constructed yeast strains were validated by polymerase chain reaction (PCR) and confirmed by Sanger sequencing of the locus of interest. Bait strains for the DHFR-PCA experiments were constructed as follows. The genes of interest were fused at their genomic 3′ end by replacing the stop codon with a linker ([…]), the DHFR F[1,2] followed by a smaller linker (GGGGS), a 1× FLAG tag ([…]) and the NATMX4 resistance cassette via homologous recombination (all amplified from pAG25-DHFR[1,2]-linker-FLAG). The set of 615 prey strains (DHFR F[3] fusions in the BY4742 background) were retrieved from the Yeast Protein Interactome Collection[43] with the exception of 73 that were reconstructed (Supplementary Tables 1 and 2). Knockout strains were taken from the yeast knockout collection except for ABP1, BEM1, BZZ1, and SLA1, which were reconstructed by replacing the ORFs with the NATMX4 resistance cassette by homologous recombination in the BY4741 background.
Yeast SH3 domain genomic sequences were replaced by CRISPR–Cas9 genome editing. Each SH3 domain (as defined by the SMART database V8.0 except for Ysc84 SH3 (as defined by PROSITE), see Source Data for all SH3 sequences and Supplementary Table 1 for primers used) was specifically targeted by one gRNA[46]. Yeast competent cells were co-transformed with a pCAS plasmid (Addgene plasmid 60847[47]) expressing both the gRNA of interest and Streptococcus pyogenes Cas9[46] and a donor DNA sequence (stuffer) with 60 bp homology arms surrounding the SH3 DNA sequence. The Stuffer DNA was either PCR amplified or digested from a plasmid. The stuffer DNA sequence ([…]) codes for a small flexible linker ([…]) inspired by protein linkers used in structural biology[12],[13]. This type of linker is frequently used for fusing proteins without affecting the structure of the linked proteins.
The overall DHFR-PCA pipeline is based on Tarassov et al.[43] and the procedures have also been published as a visualized protocol. The screens were performed with robotically manipulated pin tools (BM5-SC1, S&P Robotics Inc.). First, the preys were cherry-picked from 96-well plates to omnitrays in a 384 format on YPD + HPH solid media. […]

[2] = test system: ABP1; assay: DHFR-PCA on solid medium, bait ABP1 (Fig. 1B); details: bait ABP1, label = prey; for medrep (log2 median colony size normalized to plate background, PCA score): 2-4 replicates
Text: Supplement 41467_2021_21873_MOESM8_ESM.xlsx, sheet "Fig1B" | column: medsize; medrep; Ratio; Score

[3] = test system: Hua2; assay: Deep mutational scanning of Abp1 SH3, Abp1-Hua2 DHFR-PCA (DMS score)
Method: (§1) Single site mutation libraries were generated by a PCR-based saturation mutagenesis method[50] as described below. The mutagenesis was carried out on the pUC19 plasmid containing the SH3 domain sequence of ABP1 flanked by its homology arms subsequently used in the CRISPR mediated genomic re-integration. We used oligos containing degenerate nucleotides (NNN) to carry out the mutagenesis at each codon of the domain sequence. In the first step of the two-step PCR procedure (short PCR step), an amplicon was generated with an oligo containing the degenerate codon which is positioned within the domain sequence, and another oligo lying outside Abp1 sequence in the plasmid. Short PCR step was carried out with the following settings: 5 min at 95 °C, 35 cycles: 20 s at 98 °C, 15 s at 60 °C, 30 s at 72 °C, and a final extension of 1 min at 72 °C. The amplicon generated in this step was used as a mega primer in the second step (long PCR step) to amplify the whole plasmid. Long PCR step was carried out with the following settings: 5 min at 95 °C, 22 cycles: 20 s at 98 °C, 15 s at 68 °C, 3 min 30 s at 72 °C, and a final extension of 5 min at 72 °C. The long PCR product was digested for 2 h at 37 °C with DpnI. The digestion product was then transformed into E. coli MC1061 competent cells. In order to obtain most of the 64 possible codons, we recovered ~1000 colonies from each plate to retrieve the plasmid single mutant libraries. Saturation mutagenesis was carried out in a codon-position-wise manner. Mutants at each position were stored separately. Library quality control was assessed by amplifying the purified plasmid DNA preparations by PCR followed by Illumina sequencing as described below. The genomic insertion of the mutant libraries (one library per amino acid position) was performed by targeting the stuffer sequence in the ABP1 SH3-deleted strain as described in the strain construction section. ABP1 SH3-deleted yeast competent cells were co-transformed with pCAS containing the stuffer-specific gRNA and PCR amplified ABP1 SH3 single position mutated libraries from the pUC19 preparations. As for the library generation, ~1000 colonies from each plate were retrieved. Glycerol stocks of yeast cells were kept for each position (58 different stocks corresponding to the 58 amino acid positions of Abp1 SH3). The stocks were also validated by Illumina sequencing (see below).
(§2) Liquid DHFR-PCA experiments were performed following the generation of the ABP1 SH3 single position mutated yeast strains and were performed in biological independent duplicates. An overnight culture was started in YPD + NAT by adding the same number of cells from each yeast mutant strain (master pool). Then, the master pool and Hua2-DHFR F[3] or Lsb3-DHFR F[3] preys strains were mixed in YPD (2:1) for mating and incubated for 8 h at 30 °C. Diploid cells were selected the first time by transferring the mixture in a YPD + NAT + HPH (OD 0.5) culture for 16 h at 30 °C. The next day, the first diploid selection was transferred in SC complete pH 6.0 + NAT + HPH at 0.5 OD and the culture was grown for 24 h at 30 °C. The validation of the yeast mutant libraries was done the next day with a fraction of the diploid cells (first DHFR-PCA experiment time point without PCA selection, reference condition S2) by amplifying ABP1 SH3 genomic sequence followed by Illumina sequencing as described in the section below. Following the selection, diploid cells OD was read using a TECAN Infinite F200 Pro, and dilutions to 0.1 OD in PCA selection media without agar in a 50 mL tube was done. Tubes were incubated at 30 °C for 72 h (second-time point of the DHFR-PCA experiment, first PCA selection). A fraction of the cells (5U OD) was collected for Illumina sequencing. The cells from the first PCA step were grown for a second PCA selection step using the same procedures. […]

[4] = test system: Lsb3; assay: Deep mutational scanning of Abp1 SH3, Abp1-Lsb3 DHFR-PCA (DMS score); details: Abp1-Lsb3 DHFR-PCA, MTX2
Method: as §1, §2

[5] = bait SLA1-2, DHFR-PCA, Replicates 4 (2 for YCR009C, YDR388W)
[6] = bait SLA1-3, DHFR-PCA, Replicates 4 (2 for YCR009C, YDR388W, YIL033C)

Row | Molecule | medrep (log2 median colony size normalized to plate background, PCA score) [1, 5] | Score ([1]; bait SLA1-2, label = prey) | Ratio (SH3-deleted/WT medrep) ([1]; bait SLA1-2, label = prey) | medrep (log2 median colony size normalized to plate background, PCA score) [1, 6] | Score ([1]; bait SLA1-3, label = prey) | medrep (log2 median colony size normalized to plate background, PCA score) [2] | Ratio (SH3-deleted/WT medrep) ([2]; only significant differences showed, PPIs completely lost have a ratio of 0.1 and the gained PPIs 2.5) | hua2sc: Frequencies scaled to the synonymous mutation distribution (DMS score) ([3]; Abp1-Hua2 DHFR-PCA, MTX2, scaled to synonymous mutation distribution) | HUA2_MTX2: frequencies normalized to the reference condition ([3]; Abp1-Hua2 DHFR-PCA, MTX2, single amino acid variants of Abp1 SH3) | quadrant (effect of mutation on Hua2 and Lsb3 interactions) ([3]; classification from both Hua2 and Lsb3 DMS scores, Dest. both / Dest. Hua2 / Dest. Lsb3 / Neutral) | lsb3sc: Frequencies scaled to the synonymous mutation distribution (DMS score) ([4]; scaled to synonymous mutation distribution) | LSB3_MTX2: frequencies normalized to the reference condition ([4]; single amino acid variants of Abp1 SH3)
1 | YCR009C (protein, UniProt P25343 1-265, looked up) Reduced viability upon …: MSWEGFKKAINRAGHSVIIKNVDKTIDKEYDMEERRYKVLQRAGEALQKEAKGFLDSLRAVTASQTTIAEVISNLYDDSKYVAGGGYNVGNYYLQCVQDFDSETVKQLDGPLRETVLDPITKFSTYFKEIEEAIKKRDHKKQDFDAAKAKVRRLVDKPAKDASKLPRAEKELSLAKDIFENLNNQLKTELPQLVSLRVPYFDPSFEALIKIQLRFCTDGYTRLAQIQQYLDQQSRDDYANGLLDTKIEELLGQMTSLDICALGIK | 2.15 | 1 | 0.1 | 2.15 | 0 | 4.682 |  |  |  |  |  | 
2 | YFR004W (protein, UniProt P43588 1-306, looked up) Ubiquitin carboxyl-terminal …: MERLQRLMMNSKVGSADTGRDDTKETVYISSIALLKMLKHGRAGVPMEVMGLMLGEFVDDYTVNVVDVFAMPQSGTGVSVEAVDDVFQAKMMDMLKQTGRDQMVVGWYHSHPGFGCWLSSVDVNTQKSFEQLNSRAVAVVVDPIQSVKGKVVIDAFRLIDTGALINNLEPRQTTSNTGLLNKANIQALIHGLNRHYYSLNIDYHKTAKETKMLMNLHKEQWQSGLKMYDYEEKEESNLAATKSMVKIAEQYSKRIEEEKELTEEELKTRYVGRQDPKKHLSETADETLENNIVSVLTAGVNSVAIK | 2.485 | 1 | 0.1 | 2.485 | 0 | 3.9898 | 1.738 |  |  |  |  | 
3 | ABP1 L48L (protein, UniProt P15891 2-592, looked up, synonymous codon change L48L) Actin-binding protein: ALEPIDYTTHSREIDAEYLKIVRGSDPDTTWLIISPNAKKEYEPESTGSSFHDFLQLFDETKVQYGLARVSPPGSDVEKIIIIGWCPDSAPLKTRASFAANFAAVANNLFKGYHVQVTARDEDDLDENELLMKISNAAGARYSIQTSSKQQGKASTPPVKKSFTPSKSPAPVSKKEPVKTPSPAPAAKISSRVNDNNDDDDWNEPELKERDFDQAPLKPNQSSYKPIGKIDLQKVIAEEKAKEDPRLVQKPTAAGSKIDPSSDIANLKNESKLKRDSEFNSFLGTTKPPSMTESSLKNDDDKVIKGFRNEKSPAQLWAERKAKQNSGNAETKAEAPKPEVPEDEPEGEPDVKDLKSKFEGLAASEKEEEEMENKFAPPPKKSEPTIISPKPFSKPQEPVKAEEAEQPKTDYKKIGNPLPGMHIEADNEEEPEENDDDWDDDEDEAAQPPLPSRNVASGAPVQKEEPEQEEIAPSLPSRNSIPAPKQEEAPEQAPEEEIEEEAEEAAPQLPSRSSAAPPPPPRRATPEKKPKENPWATAEYDYDAAEDNELTFVENDKIINIEFVDDDWWLGELEKDGSKGLFPSNYVSLGN |  |  |  |  |  |  |  | -0.5549 | 1.058 | Neutral | -0.4967 | 1.0036
